Our source for the buried surface area values is patent US20200263147A1.

Assay [1] deals with UL37N, the N-terminal half (residues 1 to 496) of pseudorabies virus (PRV) UL37 (pseudorabies virus (PRV)). In words: crystal structure, interface analysis (PISA), calcium present.
For assay [2] the target is unchanged. As to the kind of experiment: crystal structure, interface analysis calculated without the calcium ions.

As for “UL37N, the N-terminal half (residues 1 to 496) of pseudorabies virus (PRV) UL37”, the figures for the buried surface area in assay [1] and in assay [2] were 1730 Å2 and 1500 Å2, respectively.
